The assay has as its target CXCR4 on THP-1 cells (human (endogenous in THP-1)) (UniProt P61073).
Sequence of UniProt P61073 (P61073 whole entry): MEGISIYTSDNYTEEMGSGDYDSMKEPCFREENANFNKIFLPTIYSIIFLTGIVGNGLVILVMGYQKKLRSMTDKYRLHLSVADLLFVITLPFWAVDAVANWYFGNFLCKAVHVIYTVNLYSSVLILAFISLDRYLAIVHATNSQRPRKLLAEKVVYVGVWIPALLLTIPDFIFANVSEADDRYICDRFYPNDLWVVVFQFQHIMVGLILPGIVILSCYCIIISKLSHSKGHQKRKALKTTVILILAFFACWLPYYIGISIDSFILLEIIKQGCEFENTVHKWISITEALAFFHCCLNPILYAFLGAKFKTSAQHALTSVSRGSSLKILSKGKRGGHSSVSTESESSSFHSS

Substance “Recombinant human stromal cell-derived factor-1 (SDF-1/CXCL12), intact (from UniProt P48061 22-93) (ligand)” yielded a CXCR4 internalization (loss of surface CXCR4 by flow cytometry) in THP-1 cells, 100 ng/mL SDF-1 for 15 minutes; uncut SDF-1, and SDF-1 pre-incubated with COAM 100x before protease at similar levels (% of receptor internalization) of 25.

The values are drawn from PMC11327020.
